How the values were obtained:
[1] = system: T1, Spo0A (Paenibacillus polymyxa SC2), ORF:894240d5; assay: EMSA; details: EMSA: Beyotime chemiluminescent EMSA kit buffer (composition and pH not stated), 10 uL, 20 min at room temperature, native PAGE in 0.5x TBE, 70 V for 70 min …
T1 sequence: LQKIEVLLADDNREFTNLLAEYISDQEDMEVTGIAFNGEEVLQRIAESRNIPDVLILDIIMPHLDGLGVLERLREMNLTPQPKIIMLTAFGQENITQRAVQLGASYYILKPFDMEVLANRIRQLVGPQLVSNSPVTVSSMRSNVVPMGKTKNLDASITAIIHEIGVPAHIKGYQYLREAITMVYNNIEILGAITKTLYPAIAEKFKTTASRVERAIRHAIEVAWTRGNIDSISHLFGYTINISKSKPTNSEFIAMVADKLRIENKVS

[2] = system: T2, AbrB3 (Paenibacillus polymyxa SC2), ORF:7049d318; assay: EMSA; details: EMSA: Beyotime chemiluminescent EMSA kit buffer (composition and pH not stated), 10 uL, 20 min at room temperature, native PAGE in 0.5x TBE, 70 V for 70 min …
T2 sequence: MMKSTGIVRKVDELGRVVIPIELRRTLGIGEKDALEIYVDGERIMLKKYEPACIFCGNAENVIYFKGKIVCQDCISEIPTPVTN

| Sequence | binding [1] | binding [2] |
| --- | --- | --- |
| ATGTAATTCACAGCCCCTTAACGTATATTACTAAAAATTTCTTTGCCAACTAGAATATTGATTCTGAATATATATCGGCAATCCCCTATAATTCCTCAACACGTTTTCCACCATTAAACAAACATATTATGGGAATTACTTGTATACTTTTCAACAGTTTACTTAATATATGCGATTGCTTCTCTAAGCCTATTCTTTTTTATCATAATTATTTAGTATTATAAGGATATAAAAAAGGAGGTTATCAT (double strand) [Pabh] | binds | binds |
| TGTACTTCCTCCTTATTGAGTGTTATTCCATTGGGACATCTGTTTGCATTAAATAAATATTTCTTGTCGGAGTATATGATTTCGACATCGAATTATGAATTCCTTCTGTCGAAAATTATTTTTATTTATTTTTTTTATTAATTCAATTATAATTGAATTTTTATCTTGCAATTCTGAGTTATTCCCCTGCTTTTCGACAAAAAAATCTTAAGGCCA (double strand) [Pspo0A] | binds | – |

Source: publication PMC10782996
